B1: Hairpin Ribozyme (parent)
chain: GUCCUCUUUCACGUGCGCGUGAAAGAGAGAAGUGAACCAGAGAAACACACGUUGUGGUAUAUUACCUGGUA

Variants of B1 are the subject of this series. The experiment in a line: self-cleavage, relative activity (ratio to wild type); higher = more cleavage; co-transcriptional.
In the case of GUCCCCUUUCACGUGCGCGUGAAAGAGAGAAGUGAACCAGAGAAACACACGUUGUGGUAUAUUACAUGGUA, the self-cleavage was determined as 0.143.

For the variant GUCCGCUUUCACGUGCGCGUGAAAGAGAGAAGUGAACCAGAGAAACACCCGUUGUGGUAUAUUACCUGGUA, the self-cleavage stood at 0.205.

GUCCGCUUUCACGUGCGCGUGAAAGAGAGAAGUGAACCAGAGAAACACGCGUUGUGGUAUAUUACCUGGUA: the self-cleavage was found to be 0.109.

GUCCCCUUUCACGUGAGCGUGAAAGAGAGAAGUGAACCAGAGAAACACACGUUGUGGUAUAUUACCUGGUA: the self-cleavage came to 0.693.

Consider GUCCCCUUUCACGUGCGCGUGAAAGAGAGAAGUGAAUCAGAGAAACACACGUUGUGGUAUAUUACCUGGUA, for which the self-cleavage was determined as 0.348.

Consider GUCCGCUUUCACGUGCGCGUGAAAGAGAGAAGUGAACCAGAGAAACACACGUUGUGGUAUAUUACCUGGUU, for which the self-cleavage was found to be 0.306.

For GUCCGCUUUCACGUGCGCGUGAACGAGAGAAGUGAACCAGAGAAACACACGUUGUGGUAUAUUACCUGGUA, the self-cleavage amounted to 0.273.

As to GUCCCCUUCCACGUGCGCGUGAAAGAGAGAAGUGAACCAGAGAAACACACGUUGUGGUAUAUUACCUGGUA, the self-cleavage was 0.457.

As to GUCCCCUUUCACGUGCGCGUGAAAGAGAGAAGUGAACCAGAGAAGCACACGUUGUGGUAUAUUACCUGGUA, the self-cleavage is 0.157.

As to GUCCCCUUUCACGUGCGCGUGAAAGAGAGAAGUGAACCAGAGAAUCACACGUUGUGGUAUAUUACCUGGUA, the self-cleavage was 0.133.

Consider GUCCCCUUUCACGUGCGCGUGAAAGAGAGAAGUGAACCAGAGAAACAGACGUUGUGGUAUAUUACCUGGUA, for which the self-cleavage was found to be 0.0712.

As to GUCCCCUUUCACGUGCGCGUGAAAGAGAGAAGUGAACCAGAGAAACAUACGUUGUGGUAUAUUACCUGGUA, the self-cleavage is 0.0847.

As for GUCCCCUUUCACGUGCGCGUGAAAGAGAGAAGUGAACCAGAGAAAAACACGUUGUGGUAUAUUACCUGGUA, the self-cleavage is 0.139.

As for GUCCCCUUUCACGUGCCCGUGAAAGAGAGAAGUGAACCAGAGAAACACACGUUGUGGUAUAUUACCUGGUA, the self-cleavage stood at 0.339.

With GUCCCCUAUCACGUGCGCGUGAAAGAGAGAAGUGAACCAGAGAAACACACGUUGUGGUAUAUUACCUGGUA, the self-cleavage was 0.197.

GUCCCCUCUCACGUGCGCGUGAAAGAGAGAAGUGAACCAGAGAAACACACGUUGUGGUAUAUUACCUGGUA: the self-cleavage was determined as 0.313.

Regarding GUCCCCUUUCACGAGCGCGUGAAAGAGAGAAGUGAACCAGAGAAACACACGUUGUGGUAUAUUACCUGGUA, the self-cleavage was 0.428.

Take GUCCCCUUUCACGUGCGCGCGAAAGAGAGAAGUGAACCAGAGAAACACACGUUGUGGUAUAUUACCUGGUA: the self-cleavage worked out at 0.673.

As to GUCCCCUUUCACGUGCGCGGGAAAGAGAGAAGUGAACCAGAGAAACACACGUUGUGGUAUAUUACCUGGUA, the self-cleavage was 0.508.

With GUCCCCUUUCACGUGCGCGUGAAAGAGAGAAGUGAACCAGAGAAACACACGUUGCGGUAUAUUACCUGGUA, the self-cleavage was 0.2.

As for GUCCCCUUUCACGUGCGCGUGAAAGAGAGAAGUGAACCAGAGAAACACACGUUGAGGUAUAUUACCUGGUA, the self-cleavage stood at 0.21.

As for GUCCCCUUUCACGUGCGCGUGAAAGAGAGAAGUGAACCAGAGAAACACACGUCGUGGUAUAUUACCUGGUA, the self-cleavage came to 0.317.

Take GUCCCCUUUCACGUGCGCGUGAAAGAGAGAAGUGAACCAGAGAAACACACGUAGUGGUAUAUUACCUGGUA: the self-cleavage came out at 0.535.

As for GUCCCCCUUCACGUGCGCGUGAAAGAGAGAAGUGAACCAGAGAAACACACGUUGUGGUAUAUUACCUGGUA, the self-cleavage was 0.303.

For GUCCGCUUUCACGUGCGUGUGAAAGAGAGAAGUGAACCAGAGAAACACACGUUGUGGUAUAUUACCUGGUA, the self-cleavage came to 0.243.

GUCCCCUUUCACGUGCGCGUGAAAGAGAUAAGUGAACCAGAGAAACACACGUUGUGGUAUAUUACCUGGUA: the self-cleavage came to 0.114.

Take GUCCCCUUUCACGUGCGCGUGAAAGAGACAAGUGAACCAGAGAAACACACGUUGUGGUAUAUUACCUGGUA: the self-cleavage stood at 0.205.

For GUCCCCUUUCACGUGCGCGUGAAAGAGAGAAGUGAACCAGAGAAACACAGGUUGUGGUAUAUUACCUGGUA, the self-cleavage came out at 0.147.

In the case of GUCCGCUUUCACGUGCGCGUGGAAGAGAGAAGUGAACCAGAGAAACACACGUUGUGGUAUAUUACCUGGUA, the self-cleavage worked out at 0.251.

Turning to GUCCCCUUUCACGUGCGCGUGAAAGAGAGAAGUGAACCAGAGAAACACACGUUGUGGUAAAUUACCUGGUA, the self-cleavage was found to be 0.392.

As for GUCCCCUUUCACGUGCGCGUGAAAGAGAGAAGUGAACCAGAGAAACACACGUUGUGGUAUAUAACCUGGUA, the self-cleavage amounted to 0.104.

As to GUCCCCUUUCACGUGCGCGUGAAAGAAAGAAGUGAACCAGAGAAACACACGUUGUGGUAUAUUACCUGGUA, the self-cleavage worked out at 0.247.

On to GUCCGCUUUCACGUGCGCGUGAAAGAGAGAAGUGAACCAGAGAAACACACGUUGUGGUAUAUUGCCUGGUA, for which the self-cleavage turned out to be 0.177.

For GUCCGCUUUCACGUGCGCGUGAAAGAGAGAAGUGAACCAGAGAAACACACGUUGUGGUAUAUUCCCUGGUA, the self-cleavage amounted to 0.155.

In the case of GUCCGCUUUCACGUGCGCGUGAAAGAGAGAAGUGAACCAGAGAAACACACGUUGUGGUCUAUUACCUGGUA, the self-cleavage worked out at 0.13.

As for GUCCGCUUUCACGUGCGCGUGAAAGAGAGAAGUGAACCAGAGAAACACACGUUGUGGUGUAUUACCUGGUA, the self-cleavage amounted to 0.0492.

GUCCGCUUUCACGUGCGCGUGAAAGAGAGAAGUGAACCAGAGAAUCACACGUUGUGGUAUAUUACCUGGUA: the self-cleavage was 0.0709.

For the variant GUCCGCUUUCACGUGCGCGUGAAAGAGAGAAGUGAACCAGAGAACCACACGUUGUGGUAUAUUACCUGGUA, the self-cleavage came to 0.122.

Regarding GUCCCCUUUCACGUGCGCGUGAAAGAGAGAAGUGAACCAGAGAAACACACGUUGUGGUAUUUUACCUGGUA, the self-cleavage was 0.105.

Take GUCCCCUUUCACGUGCGCGUGAAAGAGAGAAGUGAACGAGAGAAACACACGUUGUGGUAUAUUACCUGGUA: the self-cleavage worked out at 0.115.

For the variant GUCCCCUUUCACGUGCGCGUGAAAAAGAGAAGUGAACCAGAGAAACACACGUUGUGGUAUAUUACCUGGUA, the self-cleavage was 0.265.

With GUCCCCUUUCACAUGCGCGUGAAAGAGAGAAGUGAACCAGAGAAACACACGUUGUGGUAUAUUACCUGGUA, the self-cleavage was 0.591.

Regarding GUCCCCUUUCACUUGCGCGUGAAAGAGAGAAGUGAACCAGAGAAACACACGUUGUGGUAUAUUACCUGGUA, the self-cleavage came out at 0.579.

For the variant GUCCCCUUUCACGUGCGCGUGAAAGAGAGAACUGAACCAGAGAAACACACGUUGUGGUAUAUUACCUGGUA, the self-cleavage worked out at 0.0586.

Take GUCCCCUUUCACGUGCGCGUGAAAGAGAGAAUUGAACCAGAGAAACACACGUUGUGGUAUAUUACCUGGUA: the self-cleavage worked out at 0.132.

As to GUCCGCUUUCACGUGCGCGUGAAAGAGAGAAGUGAACCAGAGAAACCCACGUUGUGGUAUAUUACCUGGUA, the self-cleavage amounted to 0.102.

With GUCCCCUUUCACGUGCGCGUGAAAGAGAGAAGUGAACCAGAGAAACGCACGUUGUGGUAUAUUACCUGGUA, the self-cleavage was 0.332.

As to GUCCCCUUUCACGUGCGCGUGAAAGAGAGAAGUGAACCAGAGAAACACACGUUGUGGUAUACUACCUGGUA, the self-cleavage is 0.0289.

In the case of GUCCGCUUUGACGUGCGCGUGAAAGAGAGAAGUGAACCAGAGAAACACACGUUGUGGUAUAUUACCUGGUA, the self-cleavage is 0.164.

Regarding GUCCGCUUUAACGUGCGCGUGAAAGAGAGAAGUGAACCAGAGAAACACACGUUGUGGUAUAUUACCUGGUA, the self-cleavage stood at 0.235.

Turning to GUCCCCUUUCACGUGCGCGUGAAAGAGAGAAGUGAACCAGAGAAACACACGUUGUGGGAUAUUACCUGGUA, the self-cleavage came to 0.318.

With GUCCCCUUUCACGUGCGCGUGAAAGAGAGAAGUGAACCAGAGAAACACACGUUGUGGUAUAUUACCUGCUA, the self-cleavage is 0.0944.

Turning to GUCCCCUUUCACGUGCGCGUGAAAGAGAGAAGUGAACCAGAGAAACACCCGUUGUGGUAUAUUACCUGGUA, the self-cleavage came out at 0.377.

With GUCCCCUUUCACGUGCGCGUGAAAGAGAGAAGUGAACCAGAGAAACACGCGUUGUGGUAUAUUACCUGGUA, the self-cleavage is 0.343.

Turning to GUCCGCUUUCACGUGCGCGUGAAAGCGAGAAGUGAACCAGAGAAACACACGUUGUGGUAUAUUACCUGGUA, the self-cleavage was determined as 0.68.

As for GUCCCCUUUCACGUGCGCGUGAAAGAGAGAAGUGAACCAGAGAGACACACGUUGUGGUAUAUUACCUGGUA, the self-cleavage is 0.147.

For the variant GUCCGCUUUCACGUGCGCGUGAAAGAGAGAAGUGAACCAGAGAAACACACGUUGUGGUAUGUUACCUGGUA, the self-cleavage worked out at 0.0248.

With GUCCCCUUUCACGUGCGCGUGAAAGAGAGAAGUGAACCAGAGAAACACACUUUGUGGUAUAUUACCUGGUA, the self-cleavage came to 0.704.

GUCCCCUUUCACGUGCGCGUGAAAGAGAGAAGUGAACCAGAGAAACACACCUUGUGGUAUAUUACCUGGUA: the self-cleavage amounted to 0.732.

As to GUCCCCUUUCACGUGCGCGUGAAAGAGAGAAGUGAACCAGAGAAACACACGGUGUGGUAUAUUACCUGGUA, the self-cleavage stood at 0.608.

As for GUCCCCUUUCACGUGCGCGUGAAAGAGAGAAGUGAACCAGAGAAACACACGCUGUGGUAUAUUACCUGGUA, the self-cleavage turned out to be 0.636.

With GUCCCCUUUCACGUGCGCGUGAAAGAGAGAAGUGAACCAGAGAAACACACGUUGUGGUAUAUUACCUAGUA, the self-cleavage was 0.14.

For the variant GUCCCCUUUCACGUGCGCGUGAAAGAGAGAAGUGAACCAGAGAAACACACGUUGUGGUAUAUUACCUUGUA, the self-cleavage was 0.127.

Take GUCCGCUUUCACGUGAGCGUGAAAGAGAGAAGUGAACCAGAGAAACACACGUUGUGGUAUAUUACCUGGUA: the self-cleavage was 0.435.

Regarding GUCCCCUUUAACGUGCGCGUGAAAGAGAGAAGUGAACCAGAGAAACACACGUUGUGGUAUAUUACCUGGUA, the self-cleavage is 0.427.

On to GUCCCCUUUUACGUGCGCGUGAAAGAGAGAAGUGAACCAGAGAAACACACGUUGUGGUAUAUUACCUGGUA, for which the self-cleavage amounted to 0.423.

Regarding GUCCGCUUUCAAGUGCGCGUGAAAGAGAGAAGUGAACCAGAGAAACACACGUUGUGGUAUAUUACCUGGUA, the self-cleavage turned out to be 0.124.

Turning to GUCCCCUUUCACGUGCGCGUGAAAGAGAGAAGUGAACCAGAGAAACACACGUUGUGGUAUAUUACCAGGUA, the self-cleavage is 0.0797.

With GUCCCCUUUCACGUGCGCGUGAAAGAGAGAAGUGAACCAGAGAAACACACGUUGUGGUAUAUUACCUGGUG, the self-cleavage was 0.389.

For GUCCCAUUUCACGUGCGCGUGAAAGAGAGAAGUGAACCAGAGAAACACACGUUGUGGUAUAUUACCUGGUA, the self-cleavage worked out at 0.393.

Turning to GUCCCCUUUCACGUGCGCGUGAAAGAGAGAAGUGAACCAGAGAAACACACGUUGUGUUAUAUUACCUGGUA, the self-cleavage came to 0.138.

Turning to GUCCGCUUUCACGUGCGCGUGAAAGAGAGAAGUGAACGAGAGAAACACACGUUGUGGUAUAUUACCUGGUA, the self-cleavage amounted to 0.133.

For the variant GUCCCCUUUCAAGUGCGCGUGAAAGAGAGAAGUGAACCAGAGAAACACACGUUGUGGUAUAUUACCUGGUA, the self-cleavage is 0.566.

In the case of GUCCCCUUUCAGGUGCGCGUGAAAGAGAGAAGUGAACCAGAGAAACACACGUUGUGGUAUAUUACCUGGUA, the self-cleavage worked out at 0.244.

GUCCCCUUUCACGUGCGCGUGAAAGAGAGAAGUGAACCAGAGAAACACACGUUGUGGUAUAUUAGCUGGUA: the self-cleavage is 0.0463.

With GUCCGCUUUCACGUGCGCGUGAAAGAGAGAAGUGAUCCAGAGAAACACACGUUGUGGUAUAUUACCUGGUA, the self-cleavage is 0.0604.

Source of the values: the RNAGym collection of RNA variant scans (doi:10.7554/elife.80360).
